Assay results reported in the supplement of paper PMC7125110.
± gives the standard error. Variants at the floor of the assay were thinned out.

B1: glmS ribozyme (parent)
chain: AUAAAAGCGCCAGAACUACAGAAAUGUAGUUGACGAGGAGGAGGUUUAUCGAAUUUUCGGCGGAUGCCUCCAAA

Variants of: B1
Assay: self-cleavage kobs at 2500 uM GlcN6P; higher = faster cleavage; RNA array
Settings: with glucosamine-6-phosphate
Summary of the method: (§1)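 Tiles bearing barcoded ribozyme variants, transcribed in situ by E. coli RNA polymerase on sequenced MiSeq chips, were imaged over ~14 h at 37 °C using a hybridised Cy3 probe. Glucosamine-6-phosphate was supplied at 40 μM to 10 mM in HEPES/KCl/Mg(OAc)2 buffer. kobs came from one- or two-exponential decay fits to normalised per-tile medians, and weighted Michaelis–Menten fits then provided kcat and KM.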

| Variant | self-cleavage kobs at 2500 uM GlcN6P [s⁻¹] |
| --- | --- |
| AUAAAAGCGCCAUAACUACAGAAAUGUAGUUGACGAGGAGGAGGUUUAUCGAAAUUUCGGCGGAAGCCUCCAAA [G13U U54A U65A] | 5.74e-05 ± 1.5e-05 |
| AUAAAAGCGCCUGAACUACAGAAAUGUAGUUUACGAGGAGGACGUUUAUCGAAUUUUCGGCGGAUGCCUCCAAA [A12U G32U G43C] | < 1e-05 |
| AUAAAAGCGCCUGAACUACAGAAAUGUAGUUGACGAGGAGGAGGUUUAUUGAAUUUUCGGCGGACGCCUCCAAA [A12U C50U U65C] | < 1e-05 |
| AUAAAAGCGCCUGAACUACAGAAAUGUAGUUGACGAGGAGAAGGUUUAUCGAAUUUUCGGCGGAUGCUUCCAAA [A12U G41A C68U] | 3.9e-05 ± 1.6e-05 |
| AUAAAAGCGCCUGAACUACAGAAAUGUAGUUGACGAGGAGUGGGUUUAUCCAAUUUUCGGCGGAUGCCUCCAAA [A12U G41U A42G G51C] | < 1e-05 |
| AUAAAAGCGCCGGAACUACAGAAAUGUAGUUGACGAGGAGGAGGUUUAGCGAAUUUUCGGCGGGUGCCUCCAAA [A12G U49G A64G] | 9.53e-05 ± 2.8e-05 |
| AUAAAAGCGCCUGAACUACAGAAAUGUAGUUGACGAGGAGGAGGUUUAUCGAAAUUUUGGCGGAUGCCUCCAAA [A12U U54A C58U] | 4.04e-05 ± 1.6e-05 |
| AUAAAAGCGCCAUAACUACAGAAAUGUAGUUGACGAGGAGGCGGUUUAUCGAAUUUUCGGCGGAUGCCUCGAAA [G13U A42C C71G] | < 1e-05 |
| AUAAAAGCGCCAAAACUACAGAAAUGUAGUUGACGAGGAGGAGCUAUAUCGAGUUUUCGGCGGAUGCCUCCAAA [G13A G44C U46A A53G] | < 1e-05 |
| AUAAAAGCGCCAUAACUACAGAAAUGUAGUUGACAAGGAGGAGGUUUAUCGAAUUUUCGGCGGAUGACUCCAAA [G13U G35A C67A] | < 1e-05 |
| AUAAAAGCGCCAAUACUACAGAAAUGUAGUUGACGAGGAGGAGGUUUAUCGAUCUUUCGACGGAUGCCUCCAAA [G13A A14U A53U U54C G60A] | < 1e-05 |
| AUAAAAGCGCCUGAUCUACAGAAAUGUAGUUGACGAGGAGGAGGUUUAUGGAAUUUUCGGCGGAUGCCUGCAAA [A12U A15U C50G C70G] | 0.000215 ± 5.7e-05 |
| AUAAAAGCGCCAUAACUACAGAAAUGUAGUUGACGAGGAGGAGGUUCAUCGAAUUUUCGGCGGGUGCCUCCAAA [G13U U47C A64G] | 0.000125 ± 3.1e-05 |
| AUAAAAGCGCCUUAACUACAGAAAUGUAGUUGGCGAGGUGGAGGUUUUUCGAAUUUUCGGCGGAUGCCUCCAAA [A12U G13U A33G A39U A48U] | < 1e-05 |
| AUAAAAGCGCCUGAAAUACAGAAAUGUAGUUGACGAGGAGGUGGUUUAUCUAAUUUUCGGCGGAUGCCUCCAAA [A12U C16A A42U G51U] | < 1e-05 |
| AUAAAAGCGCCUGAACUACAGAAAUGUAGUUAACGAGGAGGAGGUUUAUCGAAUUUUCGACGGAUGCCUCCAAA [A12U G32A G60A] | < 1e-05 |
| AUAAAAGCGCCAUAACUACAGAAAUGUAGUUGACGAGGAGGAGGAUUAUCGGAUUUUCGGCGGAUGCCUCCAAA [G13U U45A A52G] | 5.37e-05 ± 2.1e-05 |
| AUAAAAGCGCCAUAACUACAGAAAUGUAGUUGACGAGGAGCAGGUUUAUCGAAUUUUCGACGGAUGCCUCCAAA [G13U G41C G60A] | < 1e-05 |
| AUAAAAGCGCCACAACUACAGAAAUGUAGUUGACGAGGAGGAGGUUUAUCGAAUUUUCGGCCGCUGCCUCCAAA [G13C G62C A64C] | < 1e-05 |
| AUAAAAGCGCCUGAACUACAGAAAUGUAGUUGACGAGGAGGAGGUUUAUGGAAUUUUCGGCGGAUCCCUACAAA [A12U C50G G66C C70A] | 5.12e-05 ± 2e-05 |
| AUAAAAGCGCCAUAACUACAGAAAUGUAGUCGACGAGGAGGAGGUUUAUCGAAUUUUCGGCGGAUGCCUUCAAA [G13U U31C C70U] | 0.000186 ± 4.5e-05 |
| AUAAAAGCGCCACAACUACAGAAAUGUAGUAGACGAGGAGGAGGUUUAUCGAAUUUUCGGCGGGUGCCUCCAAA [G13C U31A A64G] | 9.93e-05 ± 3e-05 |
| AUAAAAGCGCCUGAACUACAGAAAUGUAGUUGUCGAGGAGGAGGUUUAACGAAUUUUCGGCGGAUGCAUCCAAA [A12U A33U U49A C68A] | < 1e-05 |
| AUAAAAGCGCCAGCACUACAGAAAUGUAGUUGACGAGGAGGAGGUUUAUCGGAUUUUCGGCGGAUGCCUCCAAA [A14C A52G] | 0.000215 ± 3.3e-05 |
| AUAAAAGCGCCAAAACUACAGAAAUGUAGUUUACGAGGAGGAGGUUUAUCGAAUUUUCGGCGGAUGACUCCAAA [G13A G32U C67A] | 3.47e-05 ± 1.3e-05 |
| AUAAAAGCGCCUGAACUACAGAAAUGUAGUUGACGAGGAGGAGUUUUAUCGAAUUUUCGGCGGAUGCCUUCAAA [A12U G44U C70U] | 5.27e-05 ± 1.8e-05 |
| AUAAAAGCGCCGGAACUACAGAAAUGUAGUUGACGAGGAGGAGGUUUAUCGAAUAUUCGGCGGAUGCCGCCAAA [A12G U55A U69G] | 0.000115 ± 3e-05 |
| AUAAAAGCGCCACGACUACAGAAAUGUAGUUGACGAGGAGGAGGUUUAUCGAAUUUUCGGCGGAUGCUUCCAAA [G13C A14G C68U] | 8.88e-05 ± 2.7e-05 |
| AUAAAAGCGCCAAAACUACAGAAAUGUAGUUUACGAGGUGGAGGUUUAUCGAAUUUUCGGCGGAUGCCUCCAAA [G13A G32U A39U] | 4.61e-05 ± 8.8e-06 |
| AUAAAAGCGCCAAAACUACAGAAAUGUAGUUGAUGAGGAGGAUGUUUAUCGAAUUUUCGGCGGAUGCCUCCAAA [G13A C34U G43U] | < 1e-05 |

Variants of: B1
Assay: self-cleavage kobs at 10000 uM GlcN6P; higher = faster cleavage; RNA array
Settings: with glucosamine-6-phosphate
Summary of the method: as §1

| Variant | self-cleavage kobs at 10000 uM GlcN6P [s⁻¹] |
| --- | --- |
| AUAAAAGCGCCUGAACUACAGAAAUGUAGUUGACGAGGAGAAGGUUUAUCGAAUUUUCGGCGGAUGCUUCCAAA [A12U G41A C68U] | 6.86e-05 ± 1.4e-05 |
| AUAAAAGCGCCUGAACUACAGAAAUGUAGUUGACGAGGAGUGGGUUUAUCCAAUUUUCGGCGGAUGCCUCCAAA [A12U G41U A42G G51C] | < 1e-05 |
| AUAAAAGCGCCGGAACUACAGAAAUGUAGUUGACGAGGAGGAGGUUUAGCGAAUUUUCGGCGGGUGCCUCCAAA [A12G U49G A64G] | 7.02e-05 ± 2e-05 |
| AUAAAAGCGCCUGAACUACAGAAAUGUAGUUGACGAGGAGGAGGUUUAUCGAAAUUUUGGCGGAUGCCUCCAAA [A12U U54A C58U] | 6.78e-05 ± 1.3e-05 |
| AUAAAAGCGCCAUAACUACAGAAAUGUAGUCGACGAGGAGGAGGUUUAUCGAAUUUUCGGCGGAUGCCUUCAAA [G13U U31C C70U] | 0.000187 ± 3.2e-05 |
| AUAAAAGCGCCUGAACUACAGAAAUGUAGUUGUCGAGGAGGAGGUUUAACGAAUUUUCGGCGGAUGCAUCCAAA [A12U A33U U49A C68A] | < 1e-05 |
| AUAAAAGCGCCAGCACUACAGAAAUGUAGUUGACGAGGAGGAGGUUUAUCGGAUUUUCGGCGGAUGCCUCCAAA [A14C A52G] | 0.000282 ± 5.3e-05 |
